Where only a bound is given, the exact number is not on record here.

In one assay the target is T1, CD25-Fc fusion protein (UniProt P01589 22-213, limits assumed).
T1 construct: also called IL-2Rα; not shown: Fc part
T1 sequence (looked up): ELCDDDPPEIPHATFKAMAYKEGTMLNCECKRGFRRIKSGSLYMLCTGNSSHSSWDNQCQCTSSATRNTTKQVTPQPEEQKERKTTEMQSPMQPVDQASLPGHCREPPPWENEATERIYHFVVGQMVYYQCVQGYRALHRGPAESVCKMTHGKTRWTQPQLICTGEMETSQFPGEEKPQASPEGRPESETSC
Nature of the assay: BLI (Octet RED96); CD25-Fc on AHC biosensor, IL-2 mutein at 400 nM. The arrangement: unit not given here. An excerpt:
(§1) Briefly, an CD25- or CD122-Fc fusion protein was loaded onto an anti-human IgG Fc capture (AHC) biosensor.
(In general: BLI is a label-free optical method that tracks binding on a fibre tip over time.)

Another assay deals with T2, CD122-Fc fusion protein (UniProt P14784 27-240, limits assumed).
T2 construct: also called IL-2Rβ; not shown: Fc part
T2 sequence (looked up): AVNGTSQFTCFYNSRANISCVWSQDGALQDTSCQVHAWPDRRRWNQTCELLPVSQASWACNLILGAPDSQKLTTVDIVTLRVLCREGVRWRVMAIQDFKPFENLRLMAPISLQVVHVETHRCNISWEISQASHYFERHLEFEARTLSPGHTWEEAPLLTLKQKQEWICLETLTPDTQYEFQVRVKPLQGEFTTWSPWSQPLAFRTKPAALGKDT
Nature of the assay: BLI (Octet RED96); CD122-Fc on AHC biosensor, IL-2 mutein at 400 nM. The arrangement: unit not given here.
Excerpt: as §1

B1: hIL-2 Mutein (K32E, F42C, V69C, C125S) (ligand)
chain: APTSSSTKKTQLQLEHLLLDLQMILNGINNYENPKLTRMLTCKFYMPKKATELKHLQCLEEELKPLEECLNLAQSKNFHLRPRDLISNINVIVLELKGSETTFMCEYADETATIVEFLNRWITFSQSIISTLT
notes: The description says F42C and V69C form a disulfide bond; Column headed 'Fusion Protein'; no fusion partner is stated for the assay
Turning to B1, the “Binding Response” value with CD25-Fc fusion protein is less than 0.05; with CD122-Fc fusion protein, more than 0.5.

B2: hIL-2 Mutein (R38N, L40T, C125S) (ligand)
chain: APTSSSTKKTQLQLEHLLLDLQMILNGINNYKNPKLTNMTTFKFYMPKKATELKHLQCLEEELKPLEEVLNLAQSKNFHLRPRDLISNINVIVLELKGSETTFMCEYADETATIVEFLNRWITFSQSIISTLT
notes: Column headed 'Fusion Protein'; no fusion partner is stated for the assay
B2: the “Binding Response” value with CD25-Fc fusion protein is less than 0.05; in the assay with CD122-Fc fusion protein, more than 0.5.

B3: hIL-2 Mutein (K32E, R38E, F42K, C125S) (ligand)
chain: APTSSSTKKTQLQLEHLLLDLQMILNGINNYENPKLTEMLTKKFYMPKKATELKHLQCLEEELKPLEEVLNLAQSKNFHLRPRDLISNINVIVLELKGSETTFMCEYADETATIVEFLNRWITFSQSIISTLT
notes: as for B2
On to B3, for which the “Binding Response” value with CD25-Fc fusion protein is less than 0.05; in the assay with CD122-Fc fusion protein, more than 0.5.

B4: IL-2-IL-15 Chimera 1 (C125S) (ligand)
chain: APTSSSTKKTQLQLEHLLLDLQMILNGIQSMEIDATTFKFYMPKKATELKHLQCLEEELKPLEEVLNLAQSKNFHLRPRDLISNINVIVLELKGSETTFMCEYADETATIVEFLNRWITFSQSIISTLT
notes: as for B2
As for B4, the “Binding Response” value is less than 0.05 with CD25-Fc fusion protein and more than 0.5 with CD122-Fc fusion protein.

B5: IL-2-IL-15 Chimera 23 (D20E, C125S) (ligand)
chain: APTSSSTKKTQLQLEHLLLELQMILNGIQSMEIDATTFKFYMPKKATELKHLQCLEEELKPLEEVLNLAQSKNFHLRPRDLISNINVIVLELKGSETTFMCEYADETATIVEFLNRWITFSQSIISTLT
notes: as for B2
For the molecule B5, the “Binding Response” value in the assay with CD25-Fc fusion protein is less than 0.05; in the assay with CD122-Fc fusion protein, less than 0.1.

B6: IL-2-IL-15 Chimera 25 (D20K, C125S) (ligand)
chain: APTSSSTKKTQLQLEHLLLKLQMILNGIQSMEIDATTFKFYMPKKATELKHLQCLEEELKPLEEVLNLAQSKNFHLRPRDLISNINVIVLELKGSETTFMCEYADETATIVEFLNRWITFSQSIISTLT
notes: as for B2
Consider B6, for which the “Binding Response” value in the assay with CD25-Fc fusion protein was less than 0.05; in the assay with CD122-Fc fusion protein it was less than 0.1.

B7: IL-2-IL-15 Chimera 11 (H16E, C125S) (ligand)
chain: APTSSSTKKTQLQLEELLLDLQMILNGIQSMEIDATTFKFYMPKKATELKHLQCLEEELKPLEEVLNLAQSKNFHLRPRDLISNINVIVLELKGSETTFMCEYADETATIVEFLNRWITFSQSIISTLT
notes: as for B2
With B7, the “Binding Response” value with CD25-Fc fusion protein is less than 0.05; with CD122-Fc fusion protein, less than 0.2.

B8: IL-2-IL-15 Chimera 35 (I92E, C125S) (ligand)
chain: APTSSSTKKTQLQLEHLLLDLQMILNGIQSMEIDATTFKFYMPKKATELKHLQCLEEELKPLEEVLNLAQSKNFHLRPRDLISNINVEVLELKGSETTFMCEYADETATIVEFLNRWITFSQSIISTLT
notes: No fusion partner is stated for the assay; also called IL-2-IL-15 Chimera 29 (I92E, C125S)
For B8, the “Binding Response” value with CD25-Fc fusion protein was less than 0.05; with CD122-Fc fusion protein, less than 0.1.

B9: IL-2-IL-15 Chimera 21 (D20A, C125S) (ligand)
chain: APTSSSTKKTQLQLEHLLLALQMILNGIQSMEIDATTFKFYMPKKATELKHLQCLEEELKPLEEVLNLAQSKNFHLRPRDLISNINVIVLELKGSETTFMCEYADETATIVEFLNRWITFSQSIISTLT
notes: as for B2
Turning to B9, the “Binding Response” value was less than 0.05 in the assay with CD25-Fc fusion protein and less than 0.1 with CD122-Fc fusion protein.

B10: IL-2-IL-15 Chimera 15 (H16I, C125S) (ligand)
chain: APTSSSTKKTQLQLEILLLDLQMILNGIQSMEIDATTFKFYMPKKATELKHLQCLEEELKPLEEVLNLAQSKNFHLRPRDLISNINVIVLELKGSETTFMCEYADETATIVEFLNRWITFSQSIISTLT
notes: as for B2
B10: the “Binding Response” value was less than 0.05 with CD25-Fc fusion protein and less than 0.1 with CD122-Fc fusion protein.

B11: IL-2-IL-15 Chimera 33 (I92D, C125S) (ligand)
chain: APTSSSTKKTQLQLEHLLLDLQMILNGIQSMEIDATTFKFYMPKKATELKHLQCLEEELKPLEEVLNLAQSKNFHLRPRDLISNINVDVLELKGSETTFMCEYADETATIVEFLNRWITFSQSIISTLT
notes: No fusion partner is stated for the assay; also called IL-2-IL-15 Chimera 29 (I92D, C125S)
In the case of B11, the “Binding Response” value with CD25-Fc fusion protein was less than 0.05; with CD122-Fc fusion protein, less than 0.1.

B12: IL-2-IL-15 Chimera 31 (I92G, C125S) (ligand)
chain: APTSSSTKKTQLQLEHLLLDLQMILNGIQSMEIDATTFKFYMPKKATELKHLQCLEEELKPLEEVLNLAQSKNFHLRPRDLISNINVGVLELKGSETTFMCEYADETATIVEFLNRWITFSQSIISTLT
notes: No fusion partner is stated for the assay; also called IL-2-IL-15 Chimera 29 (I92G, C125S)
In the case of B12, the “Binding Response” value with CD25-Fc fusion protein is less than 0.05; in the assay with CD122-Fc fusion protein, less than 0.2.

B13: IL-2-IL-15 Chimera 5 (E15K, C125S) (ligand)
chain: APTSSSTKKTQLQLKHLLLDLQMILNGIQSMEIDATTFKFYMPKKATELKHLQCLEEELKPLEEVLNLAQSKNFHLRPRDLISNINVIVLELKGSETTFMCEYADETATIVEFLNRWITFSQSIISTLT
notes: as for B2
As to B13, the “Binding Response” value with CD25-Fc fusion protein was less than 0.05; in the assay with CD122-Fc fusion protein it was more than 0.5.

B14: IL-2-IL-15 Chimera 19 (D20T, C125S) (ligand)
chain: APTSSSTKKTQLQLEHLLLTLQMILNGIQSMEIDATTFKFYMPKKATELKHLQCLEEELKPLEEVLNLAQSKNFHLRPRDLISNINVIVLELKGSETTFMCEYADETATIVEFLNRWITFSQSIISTLT
notes: as for B2
Regarding B14, the “Binding Response” value in the assay with CD25-Fc fusion protein was less than 0.05; with CD122-Fc fusion protein, less than 0.1.

B15: IL-2-IL-15 Chimera 29 (I92A, C125S) (ligand)
chain: APTSSSTKKTQLQLEHLLLDLQMILNGIQSMEIDATTFKFYMPKKATELKHLQCLEEELKPLEEVLNLAQSKNFHLRPRDLISNINVAVLELKGSETTFMCEYADETATIVEFLNRWITFSQSIISTLT
notes: as for B2
Regarding B15, the “Binding Response” value is less than 0.05 with CD25-Fc fusion protein and less than 0.1 with CD122-Fc fusion protein.

B16: IL-2-IL-15 Chimera 27 (N88A, C125S) (ligand)
chain: APTSSSTKKTQLQLEHLLLDLQMILNGIQSMEIDATTFKFYMPKKATELKHLQCLEEELKPLEEVLNLAQSKNFHLRPRDLISAINVIVLELKGSETTFMCEYADETATIVEFLNRWITFSQSIISTLT
notes: as for B2
With B16, the figures for the “Binding Response” value in the assay with CD25-Fc fusion protein and with CD122-Fc fusion protein were less than 0.05 and less than 0.1, respectively.

B17: IL-2-IL-15 Chimera 17 (H16V, C125S) (ligand)
chain: APTSSSTKKTQLQLEVLLLDLQMILNGIQSMEIDATTFKFYMPKKATELKHLQCLEEELKPLEEVLNLAQSKNFHLRPRDLISNINVIVLELKGSETTFMCEYADETATIVEFLNRWITFSQSIISTLT
notes: as for B2
In the case of B17, the figures for the “Binding Response” value with CD25-Fc fusion protein and with CD122-Fc fusion protein were less than 0.05 and less than 0.1, respectively.
